Measured values published in US20220064329A1 (Novo Nordisk, published 2022).

T1: recombinant human activated Factor VII (FVIIa) (human, UniProt P08709 61-212; P08709 213-466, ten glutamate residues of the Gla domain may be gamma-carboxylated)
T1 construct: chains tethered by a disulfide bond; also called Factor VIIa; rFVIIa
T1 sequence 1: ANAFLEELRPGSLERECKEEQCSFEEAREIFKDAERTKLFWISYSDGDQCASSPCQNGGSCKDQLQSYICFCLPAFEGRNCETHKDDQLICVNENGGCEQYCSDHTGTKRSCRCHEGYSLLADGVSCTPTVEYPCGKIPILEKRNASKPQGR
T1 sequence 2: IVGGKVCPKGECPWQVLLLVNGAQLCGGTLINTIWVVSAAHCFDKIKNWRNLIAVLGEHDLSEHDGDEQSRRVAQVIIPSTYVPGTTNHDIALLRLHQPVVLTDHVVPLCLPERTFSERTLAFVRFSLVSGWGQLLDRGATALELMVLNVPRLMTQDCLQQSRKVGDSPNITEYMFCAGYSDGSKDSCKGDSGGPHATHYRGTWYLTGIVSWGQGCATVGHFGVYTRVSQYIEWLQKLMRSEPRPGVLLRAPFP


Biological target: T1, recombinant human activated Factor VII …
Assay: BLI (Fortebio)

Binder | Kd [nM]
VH SEQ ID NO 554 / VL SEQ ID NO 478 (antibody, IgG4, V domains shown, humanized 11F2; IgG4 S228P/kappa) VH: QVQLQESGPGLVKPSDTLSLTCAVSGYSISSDSAWSWIRQFPGKGLEWIGYIQYSGSTNYNPSLKSRVTMSVDTSKNQFSLKLSSVTALDTAVYYCARSVNYYGNSFAVGPWGQGTLVTVSS VL: EIVLTQSPATLSLSPGERATLSCRASQGVSDYLHWYQQKPGQAPRLLIKYASQPATGIPARFSGSGSGTDFTLTISSLEPEDFAVYYCQQGHSFPLTFGQGTKLEIK | 21
VH SEQ ID NO 554 / VL SEQ ID NO 382 (antibody, IgG4, V domains shown, humanized 11F2; IgG4 S228P/kappa) VH: QVQLQESGPGLVKPSDTLSLTCAVSGYSISSDSAWSWIRQFPGKGLEWIGYIQYSGSTNYNPSLKSRVTMSVDTSKNQFSLKLSSVTALDTAVYYCARSVNYYGNSFAVGPWGQGTLVTVSS VL: EIVLTQSPATLSLSPGERATLSCRASQGLSDYLHWYQQKPGEAPRLLIKYASQPATGIPARFSGSGSGTDFTLTISSLEPEDFAVYYCQNGHSFPLTFGQGTKLEIK | 21
VH SEQ ID NO 554 / VL SEQ ID NO 342 (antibody, IgG4, V domains shown, humanized 11F2; IgG4 S228P/kappa) VH: QVQLQESGPGLVKPSDTLSLTCAVSGYSISSDSAWSWIRQFPGKGLEWIGYIQYSGSTNYNPSLKSRVTMSVDTSKNQFSLKLSSVTALDTAVYYCARSVNYYGNSFAVGPWGQGTLVTVSS VL: EIVLTQSPATLSLSPGERATLSCRASQGISDYLHWYQQKPGQAPRLLIKYTSQPATGIPARFSGSGSGRDFTLTISSLEPEDFAVYYCQNGHSFPLTFGAGTKLELK | 23
VH SEQ ID NO 554 / VL SEQ ID NO 502 (antibody, IgG4, V domains shown, humanized 11F2; IgG4 S228P/kappa) VH: QVQLQESGPGLVKPSDTLSLTCAVSGYSISSDSAWSWIRQFPGKGLEWIGYIQYSGSTNYNPSLKSRVTMSVDTSKNQFSLKLSSVTALDTAVYYCARSVNYYGNSFAVGPWGQGTLVTVSS VL: EIVLTQSPATLSLSPGERATLSCRASQGVSDYLHWYQQKPGQAPRLLIKYTSQPATGIPARFSGSGSGTDFTLTISSLEPEDFAVYYCQNGHSFPLTFGQGTKLEIK | 18
VH SEQ ID NO 554 / VL SEQ ID NO 350 (antibody, IgG4, V domains shown, humanized 11F2; IgG4 S228P/kappa) VH: QVQLQESGPGLVKPSDTLSLTCAVSGYSISSDSAWSWIRQFPGKGLEWIGYIQYSGSTNYNPSLKSRVTMSVDTSKNQFSLKLSSVTALDTAVYYCARSVNYYGNSFAVGPWGQGTLVTVSS VL: EIVLTQSPATLSLSPGERATLSCRASQGISDYLHWYQQKPGQAPRLLIKYTSQPATGIPARFSGSGSGTDFTLTISSLEPEDFAVYYCQNGHSFPLTFGAGTKLELK | 19
VH SEQ ID NO 554 / VL SEQ ID NO 486 (antibody, IgG4, V domains shown, humanized 11F2; IgG4 S228P/kappa) VH: QVQLQESGPGLVKPSDTLSLTCAVSGYSISSDSAWSWIRQFPGKGLEWIGYIQYSGSTNYNPSLKSRVTMSVDTSKNQFSLKLSSVTALDTAVYYCARSVNYYGNSFAVGPWGQGTLVTVSS VL: EIVLTQSPATLSLSPGERATLSCRASQGVSDYLHWYQQKPGQAPRLLIKYASQPATGIPARFSGSGSGTDFTLTISSLEPEDFGVYYCQNGHSFPLTFGQGTKLEIK | 19
VH SEQ ID NO 554 / VL SEQ ID NO 470 (antibody, IgG4, V domains shown, humanized 11F2; IgG4 S228P/kappa) VH: QVQLQESGPGLVKPSDTLSLTCAVSGYSISSDSAWSWIRQFPGKGLEWIGYIQYSGSTNYNPSLKSRVTMSVDTSKNQFSLKLSSVTALDTAVYYCARSVNYYGNSFAVGPWGQGTLVTVSS VL: EIVLTQSPATLSLSPGERATLSCRASQGVSDYLHWYQQKPGQAPRLLIKYASQPATGIPARFSGSGSGTDFTLTISSLEPEDFAVYYCQNGHSFPLTFGQGTKLEIK | 19
VH SEQ ID NO 554 / VL SEQ ID NO 454 (antibody, IgG4, V domains shown, humanized 11F2; IgG4 S228P/kappa) VH: QVQLQESGPGLVKPSDTLSLTCAVSGYSISSDSAWSWIRQFPGKGLEWIGYIQYSGSTNYNPSLKSRVTMSVDTSKNQFSLKLSSVTALDTAVYYCARSVNYYGNSFAVGPWGQGTLVTVSS VL: EIVLTQSPATLSLSPGERATLSCRASQGVSDYLHWYQQKPGEAPRLLIKYASQPATGIPARFSGSGSGTDFTLTISSLEPEDFAVYYCQNGHSFPLTFGQGTKLEIK | 19
VH SEQ ID NO 554 / VL SEQ ID NO 494 (antibody, IgG4, V domains shown, humanized 11F2; IgG4 S228P/kappa) VH: QVQLQESGPGLVKPSDTLSLTCAVSGYSISSDSAWSWIRQFPGKGLEWIGYIQYSGSTNYNPSLKSRVTMSVDTSKNQFSLKLSSVTALDTAVYYCARSVNYYGNSFAVGPWGQGTLVTVSS VL: EIVLTQSPATLSLSPGERATLSCRASQGVSDYLHWYQQKPGQAPRLLIKYASQPATGIPARFSGSGSGTDFTLTISSLEPEDVAVYYCQNGHSFPLTFGQGTKLEIK | 22
VH SEQ ID NO 554 / VL SEQ ID NO 334 (antibody, IgG4, V domains shown, humanized 11F2; IgG4 S228P/kappa) VH: QVQLQESGPGLVKPSDTLSLTCAVSGYSISSDSAWSWIRQFPGKGLEWIGYIQYSGSTNYNPSLKSRVTMSVDTSKNQFSLKLSSVTALDTAVYYCARSVNYYGNSFAVGPWGQGTLVTVSS VL: EIVLTQSPATLSLSPGERATLSCRASQGISDYLHWYQQKPGQAPRLLIKYASQPATGIPARFSGSGSGTDFTLTISSLEPEDFAVYYCQNGHSFPLTFGQGTKLEIK | 18
VH SEQ ID NO 554 / VL SEQ ID NO 462 (antibody, IgG4, V domains shown, humanized 11F2; IgG4 S228P/kappa) VH: QVQLQESGPGLVKPSDTLSLTCAVSGYSISSDSAWSWIRQFPGKGLEWIGYIQYSGSTNYNPSLKSRVTMSVDTSKNQFSLKLSSVTALDTAVYYCARSVNYYGNSFAVGPWGQGTLVTVSS VL: EIVLTQSPATLSLSPGERATLSCRASQGVSDYLHWYQQKPGQAPRLLIKYASQPATGIPARFSGSGSGTDFTLTISSLEPEDFAVYYCQNGHSFPLTFGAGTKLEIK | 20

These reach a lower Kd. Values come first.

Kd [nM] | Binder
16 | VH SEQ ID NO 554 / VL SEQ ID NO 358 (antibody, IgG4, V domains shown, humanized 11F2; IgG4 S228P/kappa) VH: QVQLQESGPGLVKPSDTLSLTCAVSGYSISSDSAWSWIRQFPGKGLEWIGYIQYSGSTNYNPSLKSRVTMSVDTSKNQFSLKLSSVTALDTAVYYCARSVNYYGNSFAVGPWGQGTLVTVSS VL: EIVLTQSPATLSLSPGERATLSCRASQGISDYLHWYQQKPGQAPRLLIKYTSQPATGIPARFSGSGSGTDFTLTISSLEPEDFAVYYCQNGHSFPLTFGQGTKLEIK
15 | VH SEQ ID NO 554 / VL SEQ ID NO 318 (antibody, IgG4, V domains shown, humanized 11F2; IgG4 S228P/kappa) VH: QVQLQESGPGLVKPSDTLSLTCAVSGYSISSDSAWSWIRQFPGKGLEWIGYIQYSGSTNYNPSLKSRVTMSVDTSKNQFSLKLSSVTALDTAVYYCARSVNYYGNSFAVGPWGQGTLVTVSS VL: EIVLTQSPATLSLSPGERATLSCRASQGISDYLHWYQQKPGEAPRLLIKYTSQPATGIPARFSGSGSGTDFTLTISSLEPEDFAVYYCQNGHSFPLTFGQGTKLEIK
14 | VH SEQ ID NO 554 / VL SEQ ID NO 326 (antibody, IgG4, V domains shown, humanized 11F2; IgG4 S228P/kappa) VH: QVQLQESGPGLVKPSDTLSLTCAVSGYSISSDSAWSWIRQFPGKGLEWIGYIQYSGSTNYNPSLKSRVTMSVDTSKNQFSLKLSSVTALDTAVYYCARSVNYYGNSFAVGPWGQGTLVTVSS VL: EIVLTQSPATLSLSPGERATLSCRASQGISDYLHWYQQKPGEAPRLLIKYTSQPATGIPARFSGSGSGTDFTLTISSLEPEDFGVYYCQNGHSFPLTFGAGTKLELK
6.4 | VH SEQ ID NO 562 / VL SEQ ID NO 310 (antibody, IgG4, V domains shown, humanized 11F2; IgG4 S228P/kappa) VH: QVQLQESGPGLVKPSDTLSLTCAVSGYSISSDSAWSWIRQPPGKGLEWIGYIQYSGSTNYNPSLKSRVTMSRDTSKNQFSLKLSSVTALDTAVYYCARSVNYYGNSFAVGPWGQGTLVTVSS VL: EIVLTQSPATLSLSPGERATLSCRASQGISDYLAWYQQKPGQAPRLLIKYASQPATGIPARFSGSGSGTDFTLTISSLEPEDFAVYYCQNGHSFPLTFGQGTKLEIK
2 | VH SEQ ID NO 546 / VL SEQ ID NO 478 (antibody, IgG4, V domains shown, humanized 11F2; IgG4 S228P/kappa) VH: QVQLQESGPGLVEPSQTLSLTCTVSGYSITSDSAWSWIRQPPGKKLEWIGYIQYSGSTNYNPSLKSRVTISRDTSKNQFSLKLSSVTAADTAVYYCARSVNYYGNSFAVGYWGQGTSVTVSS VL: EIVLTQSPATLSLSPGERATLSCRASQGVSDYLHWYQQKPGQAPRLLIKYASQPATGIPARFSGSGSGTDFTLTISSLEPEDFAVYYCQQGHSFPLTFGQGTKLEIK
1.2 | VH SEQ ID NO 546 / VL SEQ ID NO 494 (antibody, IgG4, V domains shown, humanized 11F2; IgG4 S228P/kappa) VH: QVQLQESGPGLVEPSQTLSLTCTVSGYSITSDSAWSWIRQPPGKKLEWIGYIQYSGSTNYNPSLKSRVTISRDTSKNQFSLKLSSVTAADTAVYYCARSVNYYGNSFAVGYWGQGTSVTVSS VL: EIVLTQSPATLSLSPGERATLSCRASQGVSDYLHWYQQKPGQAPRLLIKYASQPATGIPARFSGSGSGTDFTLTISSLEPEDVAVYYCQNGHSFPLTFGQGTKLEIK
1.1 | VH SEQ ID NO 546 / VL SEQ ID NO 502 (antibody, IgG4, V domains shown, humanized 11F2; IgG4 S228P/kappa) VH: QVQLQESGPGLVEPSQTLSLTCTVSGYSITSDSAWSWIRQPPGKKLEWIGYIQYSGSTNYNPSLKSRVTISRDTSKNQFSLKLSSVTAADTAVYYCARSVNYYGNSFAVGYWGQGTSVTVSS VL: EIVLTQSPATLSLSPGERATLSCRASQGVSDYLHWYQQKPGQAPRLLIKYTSQPATGIPARFSGSGSGTDFTLTISSLEPEDFAVYYCQNGHSFPLTFGQGTKLEIK
1.1 | VH SEQ ID NO 546 / VL SEQ ID NO 486 (antibody, IgG4, V domains shown, humanized 11F2; IgG4 S228P/kappa) VH: QVQLQESGPGLVEPSQTLSLTCTVSGYSITSDSAWSWIRQPPGKKLEWIGYIQYSGSTNYNPSLKSRVTISRDTSKNQFSLKLSSVTAADTAVYYCARSVNYYGNSFAVGYWGQGTSVTVSS VL: EIVLTQSPATLSLSPGERATLSCRASQGVSDYLHWYQQKPGQAPRLLIKYASQPATGIPARFSGSGSGTDFTLTISSLEPEDFGVYYCQNGHSFPLTFGQGTKLEIK
0.92 | VH SEQ ID NO 562 / VL SEQ ID NO 318 (antibody, IgG4, V domains shown, humanized 11F2; IgG4 S228P/kappa) VH: QVQLQESGPGLVKPSDTLSLTCAVSGYSISSDSAWSWIRQPPGKGLEWIGYIQYSGSTNYNPSLKSRVTMSRDTSKNQFSLKLSSVTALDTAVYYCARSVNYYGNSFAVGPWGQGTLVTVSS VL: EIVLTQSPATLSLSPGERATLSCRASQGISDYLHWYQQKPGEAPRLLIKYTSQPATGIPARFSGSGSGTDFTLTISSLEPEDFAVYYCQNGHSFPLTFGQGTKLEIK
